Laboratory results from patent US20100204099A1 (ALBERT EINSTEIN COLLEGE OF MEDICINE OF YESHIVA UNIVERSITY, published 2010).
Values belong to the binder of their own block, whether it stands above or below them. Where no end group is shown, it is not given here.

Tests used:
[1] = target: T1, IGF binding protein-3 (IGFBP-3) (human, UniProt P17936 28-291, 125-I-labeled when used as probe in the dot blot); test: dot blot on nitrocellulose probed with 125-I-labeled IGFBP-3, autoradiography and densitometry (FIG. 17A)
T1 construct: also called hIGFBP-3; non glycosylated hIGFBP-3

[2] = target: T1, IGF binding protein-3 (IGFBP-3); test: dot blot of peptides probed with 125-I-labeled IGFBP-3 (FIG. 17A)

T1 sequence (P17936 28-291 limits assumed): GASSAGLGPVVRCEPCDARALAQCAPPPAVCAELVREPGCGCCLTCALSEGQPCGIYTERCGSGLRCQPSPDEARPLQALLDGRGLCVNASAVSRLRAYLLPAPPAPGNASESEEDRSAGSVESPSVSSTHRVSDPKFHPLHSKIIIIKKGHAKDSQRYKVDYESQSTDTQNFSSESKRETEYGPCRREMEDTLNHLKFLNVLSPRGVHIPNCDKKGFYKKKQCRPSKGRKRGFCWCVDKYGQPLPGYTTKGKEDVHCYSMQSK

B1: Humanin analog F6A (peptide)
peptide: MAPRGASCLLLLTSEIDLPVKRRA
notes: also called F6A HN; F6A-HN
binding result [1]: no binding (tested: 50 ng of peptide blotted)

B2: Humanin analog HNGF6A (peptide)
peptide: MAPRGASCLLLLTGEIDLPVKRRA
modifications: not fully specified
notes: also called F6AHNG; HN
binding result [1]: no binding (tested: 50 ng of peptide blotted)

binding result [2]: binds
B3: Humanin (peptide)
peptide: MAPRGFSCLLLLTSEIDLPVKRRA
notes: 50 ng was spotted on nitrocellulose in the dot blot; also called HN; human humanin
